Legend:
[1] = target: T1, HCoV-229E spike antigens (bead panel) (HCoV-229E, UniProt P15423 16-1115); assay: multiplex bead assay
T1 sequence: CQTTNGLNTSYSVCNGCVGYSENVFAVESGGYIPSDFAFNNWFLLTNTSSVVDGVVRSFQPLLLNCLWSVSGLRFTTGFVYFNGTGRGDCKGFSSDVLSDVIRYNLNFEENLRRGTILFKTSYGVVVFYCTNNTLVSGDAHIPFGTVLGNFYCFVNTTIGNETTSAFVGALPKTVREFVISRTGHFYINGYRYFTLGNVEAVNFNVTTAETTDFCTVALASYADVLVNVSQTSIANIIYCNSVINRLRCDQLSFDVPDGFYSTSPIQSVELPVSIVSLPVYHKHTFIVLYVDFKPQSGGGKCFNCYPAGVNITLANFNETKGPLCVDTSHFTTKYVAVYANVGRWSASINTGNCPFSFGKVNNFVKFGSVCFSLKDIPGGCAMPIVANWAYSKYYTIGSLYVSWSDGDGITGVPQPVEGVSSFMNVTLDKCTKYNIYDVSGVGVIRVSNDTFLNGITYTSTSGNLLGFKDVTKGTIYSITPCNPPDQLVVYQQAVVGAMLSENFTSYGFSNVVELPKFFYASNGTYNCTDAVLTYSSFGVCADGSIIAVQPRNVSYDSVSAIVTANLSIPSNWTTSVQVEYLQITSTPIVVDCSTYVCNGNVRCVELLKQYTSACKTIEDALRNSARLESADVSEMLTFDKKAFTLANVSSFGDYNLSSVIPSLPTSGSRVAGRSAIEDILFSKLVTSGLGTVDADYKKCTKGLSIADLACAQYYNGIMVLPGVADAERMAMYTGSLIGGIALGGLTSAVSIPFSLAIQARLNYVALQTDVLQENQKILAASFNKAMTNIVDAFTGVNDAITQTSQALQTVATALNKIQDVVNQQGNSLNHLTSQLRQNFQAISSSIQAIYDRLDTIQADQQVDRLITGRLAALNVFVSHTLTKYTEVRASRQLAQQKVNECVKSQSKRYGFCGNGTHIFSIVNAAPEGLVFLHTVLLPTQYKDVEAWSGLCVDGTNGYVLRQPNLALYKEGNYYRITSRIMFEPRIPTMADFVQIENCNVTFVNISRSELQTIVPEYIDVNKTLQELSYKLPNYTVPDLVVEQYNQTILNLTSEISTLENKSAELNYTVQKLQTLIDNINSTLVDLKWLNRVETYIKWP

[2] = target: T2, HCoV-OC43 spike antigens (bead panel) (HCoV-OC43, UniProt P36334 14-1297); assay: multiplex bead assay
T2 sequence: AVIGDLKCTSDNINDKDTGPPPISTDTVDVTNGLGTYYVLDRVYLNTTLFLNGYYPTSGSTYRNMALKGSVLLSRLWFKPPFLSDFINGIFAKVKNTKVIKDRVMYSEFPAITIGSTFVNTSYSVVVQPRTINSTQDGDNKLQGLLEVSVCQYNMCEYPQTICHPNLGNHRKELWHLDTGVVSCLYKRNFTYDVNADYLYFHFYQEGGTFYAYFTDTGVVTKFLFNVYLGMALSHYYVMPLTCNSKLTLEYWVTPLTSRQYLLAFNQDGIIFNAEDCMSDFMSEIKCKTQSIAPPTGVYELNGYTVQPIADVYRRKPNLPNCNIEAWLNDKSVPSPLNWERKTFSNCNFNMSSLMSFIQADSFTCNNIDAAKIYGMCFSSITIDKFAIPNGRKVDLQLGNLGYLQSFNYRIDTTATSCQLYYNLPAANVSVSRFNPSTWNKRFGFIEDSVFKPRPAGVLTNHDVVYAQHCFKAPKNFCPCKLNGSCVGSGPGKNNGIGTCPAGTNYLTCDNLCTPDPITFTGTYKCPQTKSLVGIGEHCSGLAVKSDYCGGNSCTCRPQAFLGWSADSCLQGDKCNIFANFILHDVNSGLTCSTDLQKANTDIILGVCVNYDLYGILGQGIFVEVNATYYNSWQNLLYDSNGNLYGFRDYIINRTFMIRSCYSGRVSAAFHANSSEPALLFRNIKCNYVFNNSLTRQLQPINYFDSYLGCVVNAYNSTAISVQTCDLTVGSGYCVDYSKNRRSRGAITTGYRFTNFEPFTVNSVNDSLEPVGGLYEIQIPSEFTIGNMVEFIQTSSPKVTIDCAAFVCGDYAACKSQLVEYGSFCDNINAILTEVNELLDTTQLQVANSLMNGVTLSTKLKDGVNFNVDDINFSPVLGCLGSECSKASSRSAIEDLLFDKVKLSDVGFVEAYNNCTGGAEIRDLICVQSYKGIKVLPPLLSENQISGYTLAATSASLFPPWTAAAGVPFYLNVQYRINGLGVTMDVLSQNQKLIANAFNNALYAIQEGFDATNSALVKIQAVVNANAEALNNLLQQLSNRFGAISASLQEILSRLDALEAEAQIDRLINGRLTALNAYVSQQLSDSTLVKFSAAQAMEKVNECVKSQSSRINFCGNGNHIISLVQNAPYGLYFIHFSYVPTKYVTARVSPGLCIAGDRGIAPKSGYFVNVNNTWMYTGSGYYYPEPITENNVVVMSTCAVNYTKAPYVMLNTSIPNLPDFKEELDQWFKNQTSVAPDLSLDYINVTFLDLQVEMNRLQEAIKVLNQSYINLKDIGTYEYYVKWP

Binder	binding result [1]	binding result [2]
COV_2014 (antibody, V domains shown, human IgG1) VH: QVQLVQSGAEVKKPGASVKVSCKVSGYTLTELSMHWVRQAPGKGLEWMGGFDPEDGETIYAQKFQGRVTMTEDTSTDTAYMELSSLRSEDTAVYYCATGKINYYDSSGYYGTFDYWGQGTLVTVSS VL: AIQLTQSPSSLSASVGDRVTITCRASQGISSYLAWYQQKPGKAPKLLIYAASTLQSGVPSRFSGSGSGTDFTLTISSLQPEDFATYYCQQLNSYHLTFGQGTRLEIK	no binding	no binding
COV_2027 (antibody, V domains shown, human IgG1) VH: EVQLVESGGGLIQPGGSLRLSCAASGFSVSTNYMSWVRQAPGKGLEWVSIIYSGGGTYYADSVKGRFTISRDTSENTLYLQMNSLRAEDTAVYYCASFLVGATGQPWYWGQGTLVTVSS VL: not shown	no binding	no binding
COV_3077 (antibody, V domains shown, human IgG1) VH: QVQLQESGPGLVKPSETLSLTCAVSGYSISSGYYWGWIRQPPGKGLEWIGSIYHSGSTYYNPSLKSRVTISVDTSKNQFSLKLSSVTAADTAVYYCARALYDAFDIWGQGTMVTVSS VL: not shown	no binding	no binding
COV_2057 (antibody, V domains shown, human IgG1) VH: EVQLVQSGAEVKKPGESLKISCKGSGYSFISYWIAWVRQMPGKGLEWMGIIYPGDSDTTYSPSFQGQVTISADKSISTAYLQWSSLKASDTAIYYCARLLYYSDSSPLDSWGQGTLVTVSS VL: DIQMTQSPSSLSASVGDRVTITCRASQSISTYLNWYQQKPGKAPNLLIYAASSLQSGVPSRFSGSGSGTDFTLTISSLQPEDFATYYCQQSHSTPRTFGPGTKVDIK	no binding	no binding
COV_2143 (antibody, V domains shown, human IgG1) VH: EVQLVESGGGVVQPGRSLRLSCAASGFTFNSFAMLWVRQAPGKGLEWVALFSYDGSNKYYADSVKGRFTISRDNSKNTLYLQMNNLRAVDTAVYYCARASPYDINGYYLHRIAFDIWGQGTMVTVSS VL: QSVLMQPPSVSGAPGQRVTISCTGSSSNIGAGYDVHWYQQLPGTAPKLLMYGNSNRPSGVPDRFSGSKSGTSASLAITGLQAEDEADYYCQSYDSGLSGWVFGGGTKLTVLG	no binding	no binding
COV_2028 (antibody, V domains shown, human IgG1) VH: QVQLQESGPGLVKPSGTLSLTCVVSGGSISSSNWWSWVRQPPGKGLEWIGEIYHSGSTNYNPSLKSRVTISVDKSKNQFSLRLTSVTAADTAVYYCARGWNYDYWGQGTLVTVSS VL: QSALTQPASVSGSPGQSITIACTGTSSDVGSYNLVSWYQQHPGKAPKLMIYEVSKRPSGLSNRFSGSKSGNTASLTISGLQAEDEADYYCYSYAGSSTWVFGGGTKLTVL	no binding	no binding
COV_2174 (antibody, V domains shown, human IgG1) VH: EVQLAESGGGLVKPGGSLRLSCAASGFTFSDYYMSWIRQAPGKGLEWVSYISSSGSTIYYADSVKGRFTISRDNAKNSLYLQMNSLRAEDTAVYYCARDWSVVVVPAAPAVDVWGQGTTVTVSS VL: DIQMTQSPSSLSASVGDRVTITCRASQGISNYLAWFQQKPGKAPKSLIYAASSLQSGVPSKFSGSGSGTDFTLTISSLQPEDFATYYCQQYNSYPLTFGGGTKVEIKR	no binding	no binding
COV_2025 (antibody, V domains shown, human IgG1) VH: QVHLVQSGAEVKKPGASVKVSCKVSGYTLVELSVHWVRQAPAKGLEWIGGFDPEDGETIYAQKFQGRVTMTEDTSTDTAYMELTNLRSEDTAVYYCVTSQPFVSPNWFDPWGQGTLVTVSS VL: QSALTQPASVSGSPGQSITISCTGTSRDVGAYNYVSWYQQHPGKAPKLMIYEVTTRPSGVSNRFSGSKSGNTASLTISGLQAEDEADYYCSSYTGSRTLVFGTGTKVTVL	no binding	no binding
COV_2172 (SEQ ID NO:872/877) (antibody, V domains shown) VH: EVQLVESGGGVVQPGRSLRLSCAPSGFTFSTYAMHWVRQAPGKGLEWVAVISYDGSIKYYADSVKGRFTISRDNTMNTVFLQMNSLRAEDTAVYFCAKGGERWELFTSFDYWGQGTQVTVSS VL: QSALTQPRSVSGSPGQSVTISCTGTSSDVGGYNYVSWYQQHPGKAPKLMIYDVSKRPSGVPDRFSGSKSGNTASLTISGLQAEDEADYYCCSYAGSYTFVFGGGTKLTVLG	no binding	no binding
COV_2035 (antibody, V domains shown, human IgG1) VH: QVQLVQSGAEVKKPGASVKVSCKVSGYTLPELSIHWVRQAPGKGLEWLGGFDPEDGKIIYAQKFQGRVTMTEDTSTDTAYMELSSLRSEDTAVYYCATSPAVVERGWFDPWGQGTLVTVSS VL: QSALTQPPSASGSPGQSVTISCTGTSSDVGGYNYVSWYQQHPGKAPKLMIYEVSKRPSGVPDRFSGSKSGNMASLTVSGLQAEDEANYYCSSYAGSKRVFGGGTKLTVL	no binding	no binding
COV_2039 (antibody, V domains shown, human IgG1) VH: QVQLVQSGAEVKKPGASVKVSCKVSGYMLIELSMHWVRQAPGKGLEWMGGFDPEDAETIYAQEFQGRVTMTEDTSTDTAYMELSSLRSEDTAVYYCTTGPAVTNRPADYWGPGTLVTVSS VL: QSVLTQPPSVSGAPGQRVTISCTGSSSNIGASYDVHWYQQLPGTAPKLLIYANSNRPSGVPDRFSGSKSGTSASLAITGLQAEDEADYYCQSYDSSLSYSVVFGGGTKLTVL	no binding	no binding
COV_2054 (antibody, V domains shown, human IgG1) VH: EVQLVESGGGVLQPGRSLRLSCAASGFTFNNYALHWVRQAPGKGLEWVAVISYDGSSKYYADSVRGRLTISRDNSRNTLYLQMNSLRPEDTAIYYCARDGDGLWLGESFYFDDWGQGTLVTVSS VL: DIQMTQSPSTLSASVGDRVIITCRASQSISSWLAWYQQKPGKAPKLLIYEASTLQSGVPSRFSGSGSGTEFTLTISSLQPDDSATYYCQQYNSYPVHFSQGTKLEIK	no binding	no binding
COV_2037 (antibody, V domains shown, human IgG1) VH: QVQLVQSGAEVKKPGASVKVSCKVSGYTLTELSMHWVRQAPGKGLEWMGGFDPEDAETIYAQKFQGRVTMTEDTSTDTAYMELSSLRSEDTAVYYCATAGAITGTPTNYSYYYGMDFWGQGTTVTVSS VL: not shown	no binding	no binding

From US20240101645A1 (HENRY M JACKSON FOUNDATION FOR THE ADVANCEMENT OF MILITARY …, published 2024)
